Consider one molecule from doi:10.1101/2022.09.21.508836 (bioRxiv, 2022).

This test addresses FIP200 (full length) (human, UniProt Q8TDY2 1-1594). The test can be described thus: pull-down.

Sequence of FIP200 (full length) (Q8TDY2 whole entry): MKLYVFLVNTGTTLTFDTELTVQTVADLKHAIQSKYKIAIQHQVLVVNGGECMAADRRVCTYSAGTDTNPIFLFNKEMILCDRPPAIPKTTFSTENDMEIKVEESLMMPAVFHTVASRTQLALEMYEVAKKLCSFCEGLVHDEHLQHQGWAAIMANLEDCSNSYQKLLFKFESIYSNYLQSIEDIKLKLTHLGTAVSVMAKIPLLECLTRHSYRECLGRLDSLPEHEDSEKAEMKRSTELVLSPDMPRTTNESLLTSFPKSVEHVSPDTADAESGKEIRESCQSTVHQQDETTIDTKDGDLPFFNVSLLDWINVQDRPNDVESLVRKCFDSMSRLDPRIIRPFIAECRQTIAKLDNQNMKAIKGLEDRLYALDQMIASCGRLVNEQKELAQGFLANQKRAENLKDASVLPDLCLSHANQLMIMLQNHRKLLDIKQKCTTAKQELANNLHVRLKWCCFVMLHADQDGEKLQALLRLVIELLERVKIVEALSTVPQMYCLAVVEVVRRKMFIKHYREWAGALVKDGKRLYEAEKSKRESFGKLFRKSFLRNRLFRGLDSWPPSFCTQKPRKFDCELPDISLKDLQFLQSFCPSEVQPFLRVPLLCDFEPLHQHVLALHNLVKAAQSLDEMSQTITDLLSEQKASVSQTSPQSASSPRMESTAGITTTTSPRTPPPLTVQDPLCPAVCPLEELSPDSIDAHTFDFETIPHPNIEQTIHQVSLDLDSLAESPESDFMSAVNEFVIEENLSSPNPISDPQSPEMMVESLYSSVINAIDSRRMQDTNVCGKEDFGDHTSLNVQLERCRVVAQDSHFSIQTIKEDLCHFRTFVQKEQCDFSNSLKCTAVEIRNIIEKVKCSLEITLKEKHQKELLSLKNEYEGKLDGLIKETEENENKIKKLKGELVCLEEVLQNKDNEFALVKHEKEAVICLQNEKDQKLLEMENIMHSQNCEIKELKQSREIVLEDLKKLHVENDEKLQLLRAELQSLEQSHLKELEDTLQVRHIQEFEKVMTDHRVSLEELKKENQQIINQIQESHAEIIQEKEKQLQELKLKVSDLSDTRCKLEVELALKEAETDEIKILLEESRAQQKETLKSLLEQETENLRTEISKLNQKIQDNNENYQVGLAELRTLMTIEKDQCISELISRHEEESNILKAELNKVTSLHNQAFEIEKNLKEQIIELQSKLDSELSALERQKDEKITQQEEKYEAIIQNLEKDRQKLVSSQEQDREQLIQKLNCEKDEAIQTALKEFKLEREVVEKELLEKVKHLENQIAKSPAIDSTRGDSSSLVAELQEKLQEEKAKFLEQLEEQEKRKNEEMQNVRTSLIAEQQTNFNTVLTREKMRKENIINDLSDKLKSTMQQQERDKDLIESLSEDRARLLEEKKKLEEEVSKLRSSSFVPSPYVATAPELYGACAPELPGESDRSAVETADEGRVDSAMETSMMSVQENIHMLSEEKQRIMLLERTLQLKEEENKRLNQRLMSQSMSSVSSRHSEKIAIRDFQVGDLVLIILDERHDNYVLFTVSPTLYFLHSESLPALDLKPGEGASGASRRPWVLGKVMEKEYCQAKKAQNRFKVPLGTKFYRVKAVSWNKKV

B1: ULK1 (full length) (enzyme)
chain: MEPGRGGTETVGKFEFSRKDLIGHGAFAVVFKGRHREKHDLEVAVKCINKKNLAKSQTLLGKEIKILKELKHENIVALYDFQEMANSVYLVMEYCNGGDLADYLHAMRTLSEDTIRLFLQQIAGAMRLLHSKGIIHRDLKPQNILLSNPAGRRANPNSIRVKIADFGFARYLQSNMMAATLCGSPMYMAPEVIMSQHYDGKADLWSIGTIVYQCLTGKAPFQASSPQDLRLFYEKNKTLVPTIPRETSAPLRQLLLALLQRNHKDRMDFDEFFHHPFLDASPSVRKSPPVPVPSYPSSGSGSSSSSSSTSHLASPPSLGEMQQLQKTLASPADTAGFLHSSRDSGGSKDSSCDTDDFVMVPAQFPGDLVAEAPSAKPPPDSLMCSGSSLVASAGLESHGRTPSPSPPCSSSPSPSGRAGPFSSSRCGASVPIPVPTQVQNYQRIERNLQSPTQFQTPRSSAIRRSGSTSPLGFARASPSPPAHAEHGGVLARKMSLGGGRPYTPSPQVGTIPERPGWSGTPSPQGAEMRGGRSPRPGSSAPEHSPRTSGLGCRLHSAPNLSDLHVVRPKLPKPPTDPLGAVFSPPQASPPQPSHGLQSCRNLRGSPKLPDFLQRNPLPPILGSPTKAVPSFDFPKTPSSQNLLALLARQGVVMTPPRNRTLPDLSEVGPFHGQPLGPGLRPGEDPKGPFGRSFSTSRLTDLLLKAAFGTQAPDPGSTESLQEKPMEIAPSAGFGGSLHPGARAGGTSSPSPVVFTVGSPPSGSTPPQGPRTRMFSAGPTGSASSSARHLVPGPCSEAPAPELPAPGHGCSFADPITANLEGAVTFEAPDLPEETLMEQEHTEILRGLRFTLLFVQHVLEIAALKGSASEAAGGPEYQLQESVVADQISLLSREWGFAEQLVLYLKVAELLSSGLQSAIDQIRAGKLCLSSTVKQVVRRLNELYKASVVSCQGLSLRLQRFFLDKQRLLDRIHSITAERLIFSHAVQMVQSAALDEMFQHREGCVPRYHKALLLLEGLQHMLSDQADIENVTKCKLCIERRLSALLTGICA
For B1, the binding result was “binds”.
